From US5849558

Test system: PspGI restriction endonuclease (recombinant, pPspGIR70) (Pyrococcus species G-I-H)
Experiment: cleavage_in_vitro
Conditions: approximate titer of crude extract on T7 DNA; NEBuffer III, 65 C 1 h

Work on T7 DNA yielded an activity (units/g cells) of 20000.
